T1: CEBPδ in nuclear extracts of COS1 cells (UniProt Q00322 1-268)
T1 sequence (looked up): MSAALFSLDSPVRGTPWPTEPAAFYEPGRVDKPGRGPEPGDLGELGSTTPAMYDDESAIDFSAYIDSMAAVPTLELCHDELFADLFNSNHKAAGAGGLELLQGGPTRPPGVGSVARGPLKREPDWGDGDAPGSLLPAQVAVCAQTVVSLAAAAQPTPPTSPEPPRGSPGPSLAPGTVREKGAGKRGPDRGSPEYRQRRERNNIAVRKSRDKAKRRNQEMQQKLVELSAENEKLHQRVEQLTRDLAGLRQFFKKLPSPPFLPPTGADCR

T2: endogenous CEBPβ (CCAAT enhancer binding protein beta) (mouse (endogenous in mouse visceral …, UniProt P28033-1 1-296))
T2 sequence (looked up): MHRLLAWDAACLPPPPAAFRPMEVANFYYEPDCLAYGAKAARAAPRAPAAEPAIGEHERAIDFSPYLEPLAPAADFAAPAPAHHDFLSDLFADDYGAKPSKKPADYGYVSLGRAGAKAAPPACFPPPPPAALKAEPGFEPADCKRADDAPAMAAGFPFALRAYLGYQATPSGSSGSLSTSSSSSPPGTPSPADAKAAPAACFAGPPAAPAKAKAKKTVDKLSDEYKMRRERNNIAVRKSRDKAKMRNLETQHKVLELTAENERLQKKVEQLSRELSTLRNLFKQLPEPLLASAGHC


Tests used:
[1] = biological target: Flag-tagged CEBPα (UniProt P53566 1-359); assay: cell-based or functional assay
[2] = biological target: T1, CEBPδ in nuclear extracts of COS1 cells; assay: cell-based or functional assay
[3] = biological target: T2, endogenous CEBPβ (CCAAT enhancer …); assay: cell-based or functional assay
[4] = biological target: His-CEBPα (UniProt P53566 1-359); assay: EMSA; no Hop2; EMSA: 5 pmol probe, room temperature, 10 min; buffer, salt and pH not given (refs 36, 55); settings: protein: recombinant; tags: His; chain copies: 2; label: 32P; self-annealed, two copies of the strand; 20 bp duplex with 5' overhang 4 nt (GATC) at both ends
Chain of His-CEBPα (P53566 whole entry): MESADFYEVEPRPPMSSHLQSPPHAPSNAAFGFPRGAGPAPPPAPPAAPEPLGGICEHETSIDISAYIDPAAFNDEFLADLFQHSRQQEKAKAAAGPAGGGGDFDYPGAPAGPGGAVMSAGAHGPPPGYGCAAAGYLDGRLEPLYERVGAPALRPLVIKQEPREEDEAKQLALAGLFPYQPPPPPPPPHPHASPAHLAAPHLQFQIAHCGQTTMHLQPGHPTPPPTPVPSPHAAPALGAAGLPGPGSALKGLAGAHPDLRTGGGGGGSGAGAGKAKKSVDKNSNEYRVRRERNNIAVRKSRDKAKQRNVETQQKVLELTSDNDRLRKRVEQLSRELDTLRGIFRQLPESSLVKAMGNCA

Chain of Flag-tagged CEBPα (P53566 whole entry): as above

Binder	C3-Luc reporter activity in COS1 cells cotransfected with CEBPα and Hop2 (6.1-fold brought down to 1.6-fold) [1]	Leptin-Luc reporter activity in COS1 cells cotransfected with CEBPα and Hop2 (35.7- to 12.2-fold) [1]	C3-Luc reporter activity in COS1 cells cotransfected with CEBPδ and Hop2 (5.7-fold brought down to 2.2-fold) [2]	Leptin-Luc reporter activity in COS1 cells cotransfected with CEBPδ and Hop2 (31.9- to 1.4-fold) [2]	C3-Luc reporter activity in COS1 cells cotransfected with CEBPβ and Hop2 (4.5-fold brought down to 3.1-fold) [3]	Leptin-Luc reporter activity in COS1 cells cotransfected with CEBPβ and Hop2 (21.0- to 1.7-fold) [3]	binding result [4]
hemagglutinin (HA)-tagged Hop2 (natural protein, UniProt O35047 1-217, looked up) MSKSRAEAAAGAPGIILRYLQEQNRPYSAQDVFGNLQKEHGLGKAAVVKALDQLAQEGKIKEKTYGKQKIYFADQNQFDTVSDADLHGLDASIVALTAKVQSLQQSCRHMEAELKELTSALTTPEMQKEIQELKKECAQYTERLKNIKAATNHVTPEEKEKVYRDRQKYCKEWRKRKRMTTELCDAILEGYPKSKKQFFEEVGIETDEDHNVLLPDP	74 % suppression	66 % inhibition	61 % suppression	97 % inhibition	31 % suppression	92 % inhibition	–
CEBP consensus palindrome probe (dsDNA) DNA 1: GATCTGCAGATTGCGCAATCTGCA DNA 2: GATCTGCAGATTGCGCAATCTGCA	–	–	–	–	–	–	binds
